Consider three molecules from patent US20110190483, “Stimulus-Responsive Apta Chelamers” (The Administrators of the Tulane Educational Fund, published 2011).

Holding throughout (details): tags: Sigma Aldrich, from bovine pancreas; label: fluorescein on 5'-terminal dT; intramolecular antiparallel G4
In data set [1] the target is T1, trypsin (Bos taurus, UniProt P00760 P00760:24-246). In words: FP; 25 mM KCl, 200 mM NaCl, 25 mM Hepes pH 7.4, 25 C; iodophenylthiourea arm only. The method, then: (§1) The preformed quadruplexes were then incubated with increasing concentrations of trypsin at 25° C. (25 mM KCl, 200 mM NaCl, 25 mM Hepes, pH 7.4) for 30 min. Preliminary fluorescence anisotropy studies were conducted to ascertain that equilibrium was reached after 30 min and that there was no significant quenching of the fluorescein emission. The anisotropy associated with the fluorescein emission was followed at 525 nm (excitation at 495 nm). The resultant binding isotherms (FIG. 14) were fitted using non-linear regression to a 1:1 binding stoichiometry. […] This dissociation constant is attributed to non-specific interactions between bovine trypsin and ODN 4, since trypsin (pI=10.5) is positively charged at pH=7.4 and thus can potentially associate with the negatively charged DNA backbone. Support for such non-specific interactions comes from incubation of trypsin with ODN 4 where the concentration of salts were decreased to only 5 mM KCl, 25 mM Hepes, pH 7.4 (see, e.g., FIG. 23).
T1 sequence (P00760 24-246, one chain of several): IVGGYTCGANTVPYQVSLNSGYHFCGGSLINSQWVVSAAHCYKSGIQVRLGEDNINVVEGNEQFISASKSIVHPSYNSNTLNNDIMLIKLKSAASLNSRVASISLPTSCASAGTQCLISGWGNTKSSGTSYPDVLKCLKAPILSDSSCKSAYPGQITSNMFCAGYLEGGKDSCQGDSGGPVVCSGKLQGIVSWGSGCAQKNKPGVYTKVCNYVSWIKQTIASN
(§2) Immediately prior to each fluorescence polarization experiment, fresh stock solutions of trypsin were made in Hepes buffer (20 mM KCl, 200 mM NaCl, 25 mM Hepes, pH 7.4). Concentration of the trypsin in the stock solutions were determined using ultra-violet absorbance at 280 nm (ε=37669 M⁻¹cm⁻¹).

The target of data set [2] is T1, trypsin. As to the kind of experiment: FP; low salt: 5 mM KCl, 25 mM Hepes pH 7.4; +/-0.3e-6. The method, then: The results of FIG. 23 show fluorescence anisotropy titrations of AC 1 and negative control ODN 4 (2 nM), first exposed to quadruplex forming conditions followed by incubation with increasing concentrations of trypsin. These experiments were conducted under low-salt conditions (5 mM KCl, 25 mM Hepes, pH 7.4. The raw data is depicted by circles for AC 1 and diamonds (♦) for ODN 4. The lines represent non-linear fits to equation 2 (R²=0.99 for AC 1 and 0.98 for ODN 4).
These findings are consistent with the fact that bovine trypsin is positively charged at pH=7.4 (pI of bovine trypsin is=10.5) and thus can potentially associate with the negatively charged ODN backbone, through non-specific interactions, under low-salt conditions.

The target of data set [3] is T1, trypsin. As to the kind of experiment: FP; preformed quadruplex, 25 mM KCl (20 mM elsewhere), 200 mM NaCl, 25 mM Hepes pH 7.4, 25 C; binding through small-molecule arms. The method, then: as §1, §2
Data set [4] deals with T1, trypsin. In words: FP; 25 mM KCl, 200 mM NaCl, 25 mM Hepes pH 7.4, 25 C; benzamidine arm only. The method, then: as §1, §2

On to TTGGTTGGTGTGGTTGGT (structured_DNA, 3'-iodophenylthiourea arm via C6 spacer, no 5' arm) [ODN 3 (Formula 5)], for which, in the data set with trypsin [1], the Kd turned out to be 90 µM.
For the molecule TTGGTTGGTGTGGTTGGT (structured_DNA, 5'-benzamidine arm via C10 spacer, 3'-iodophenylthiourea arm via C6 spacer) [AC 1 (ODN 1, Formula 3)], the Kd with trypsin [2] stood at 2.8 µM; with trypsin [3] it was 0.81 µM.
TTGGTTGGTGTGGTTGGT (structured_DNA, 5'-benzamidine arm via C10 spacer, no 3' arm) [ODN 2 (Formula 4)]: the Kd with trypsin [4] amounted to 29 µM.

As usually defined, the Kd is the concentration at which binding is half-saturated.
